The text below walks through data of US11787839B2, “Targeting α2δ-1-bound glutamate receptors for treating diseases and disorders” (Board of Regents, The University of Texas System, priority 2017, dated 2023).

Entries after “also recorded” stand apart in the source; their conditions may differ.

In test [1] the test system is surface GluN1, GluN2A, GluN2B. Put plainly: HEK293 cell membrane surface protein analysis (biotinylation). Format: cell-based, rat. Also on record: dose or concentration left out as unconfirmed. The note with it: gabapentin for 60 min. On the procedure: Isolation and analysis of HEK293 cell membrane surface proteins: HEK293 cells were transfected with GluN1-1a, GluN2A/GluN2B and/or α2δ-1 after they had grown to 80-90% confluence in 75-cm^2 culture flasks. Cell surface biotinylation was performed using the Pierce Cell Surface Protein Isolation Kit (#89881, Thermo Fisher Scientific) according to the manufacturer's instructions. Briefly, cells were incubated with Sulfo-NHS—SS-biotin, which covalently binds to primary amino groups of extracellular proteins at 4° C. with constant rotation for 30 min. Excess biotin was quenched with quenching solution (Chaplan et al., 1997). The cells were washed, harvested by gentle scraping and lysed using the provided lysis buffer in the cocktail of protease and phosphatase inhibitors (#78440, Thermo Fisher Scientific) for 30 min at 4° C. The lysates were then centrifuged for 2 min at 10,000×g at 4° C., and the clear supernatants were added to NeutrAvidin agarose and incubated for 60 min at 25° C. with end-over-end mixing. The unbound (unbiotinylated) proteins, representing the intracellular fraction, were separated from the captured surface proteins by centrifugation of the column. […] Protein bands were quantified using Image Studio software (version 3.1, LI-COR Biosciences).

The subject of test [2] is GluN1/GluN2A or GluN1/GluN2B NMDARs with or without α2δ-1 in HEK293 cells. As to the kind of experiment: Whole-cell recording of NMDAR currents in HEK293 cells. It is filed as cell-based, rat. Set-up: α2δ-1 co-expression-induced increase in the NMDAR current density / NMDAR currents in cells expressing GluN1/GluN2A or GluN1/GluN2B alone: dose or concentration left out as unconfirmed. The text has this:
Cell culture and transfection: HEK293 cells (American Type Culture Collection, Manassas, Va.) were maintained in Dulbecco's modified Eagle medium (DMEM) (#10-017-CV, Corning, Manassas, Va.) supplemented with 10% fetal bovine serum (#F4135, Sigma-Aldrich) and penicillin/streptomycin (#30-002-CI, Corning). Cells were passaged after they reached a confluence of 80-90%, approximately every 2 days. HEK293 cells were transfected using PolyJet reagents (#SL100688, SignaGen Laboratories, Gaithersburg, Md.) at a GluN1/GluN2/α2δ-1 ratio of 1:3:1 (the DNA:PolyJet ratio was 1:3).
Whole-cell recording of NMDAR currents in HEK293 cells: Whole-cell recording was performed using a fire-polished pipette (3-5 MΩ) pulled from borosilicate glass and filled with an intracellular solution containing (in mM) 135 CsF, 2 MgCl2, 0.5 CaCl2, 5 EGTA, 2 Mg-ATP and 10 HEPES (pH, 7.25; 285 mOsmol/L). The extracellular solution contained (in mM) 160 NaCl, 2.5 KCl, 0.2 CaCl2, 10 HEPES, and 10 glucose (pH, 7.35; 300-310 mOsmol/L). Whole-cell currents were recorded with an EPC-10 amplifier (HEKA Instruments, Lambrecht, Germany) at a holding potential of −60 mV. Signals were filtered at 1 kHz, digitized at 10 kHz and acquired using the Pulse program (HEKA Instruments). After the whole-cell configuration was established, the cell membrane capacitance and series resistance were electronically compensated for. Glycine (10 μM) and NMDA (300 μM) were used to elicit NMDAR currents. For voltage-dependent Mg^2+ block experiments, the conductance-voltage relation of NMDARs was assessed when 2 mM MgCl2 was added to the extracellular solution. The sensitivity of NMDARs to Mg^2+ was estimated by fitting current-voltage relationships to a Boltzmann function (Zhou et al., 2012). All HEK293 cell recording experiments were performed at 25° C.

Another test has as its target T1, α2δ-1-GluN1 interaction (Rattus norvegicus, UniProt P35439+Q00959).
T1 construct: expressed in transfected cells; host or cells: HEK293
It is filed as cell-based. The conditions noted are these: HEK293; 0.01, 0.1, or 1 mM peptide.

The target in test [3] is T2, presynaptic NMDARs of spinal dorsal horn neurons (Rattus norvegicus, UniProt P35439+Q00959+Q00960).
T2 construct: from tissue; host or cells: rat lumbar spinal cord slices (lamina II neurons) and synaptosomes made from them
As to the kind of experiment: Spinal cord slice recordings, morphine-treated rats. Format: cell-based. The note with it: AP5 50 μM, gabapentin 100 μM. Here is the method: Spinal cord slice preparation and electrophysiological recordings: The lumbar spinal cord was rapidly removed through laminectomy from the animals anesthetized with isoflurane. […] The spinal cord tissue was then placed in a shallow groove formed in an agar block and glued onto the stage of a vibratome (Leica, Germany).
All signals were recorded using an amplifier (MultiClamp700B; Axon Instruments Inc., Union City, Calif.), filtered at 1-2 kHz, and digitized at 10 kHz.

Test [4] has as its system rats treated with the Cacna2d1 vector. Put plainly: Withdrawal thresholds in rats overexpressing Cacna2d1 (lentiviral vector). It is filed as in vivo, rat. The conditions noted are these: for pain hypersensitivity induced by Cacna2d1 overexpression (tactile and pressure withdrawal thresholds): Cacna2d1 vector rats, AP5, peptide, gabapentin intrathecal, memantine systemic.

The target of test [5] is T3, NMDARs of RVLM-projecting PVN neurons (Rattus norvegicus, UniProt P35439+Q00959+Q00960).
T3 construct: from tissue; host or cells: rat hypothalamic slices containing the PVN (Sprague-Dawley, WKY, SHR) and synaptosomes made from them
As to the kind of experiment: Recordings of RVLM-projecting PVN neurons in slices of WKY rats and SHRs. Format: cell-based.

Test [6] deals with presynaptic NMDARs of spinal lamina II neurons (Rattus norvegicus, UniProt P35439+Q00959+Q00960).
[7] abbreviates: paclitaxel-treated rats, AP5 50 μM, pregabalin 20 μM, peptides 1 μM.
[8] abbreviates: vehicle-treated rats, AP5 50 μM, pregabalin 20 μM, peptides 1 μM.

Sequence of presynaptic NMDARs of spinal lamina II neurons (Q00959 20-1464 limits assumed, other chains not shown): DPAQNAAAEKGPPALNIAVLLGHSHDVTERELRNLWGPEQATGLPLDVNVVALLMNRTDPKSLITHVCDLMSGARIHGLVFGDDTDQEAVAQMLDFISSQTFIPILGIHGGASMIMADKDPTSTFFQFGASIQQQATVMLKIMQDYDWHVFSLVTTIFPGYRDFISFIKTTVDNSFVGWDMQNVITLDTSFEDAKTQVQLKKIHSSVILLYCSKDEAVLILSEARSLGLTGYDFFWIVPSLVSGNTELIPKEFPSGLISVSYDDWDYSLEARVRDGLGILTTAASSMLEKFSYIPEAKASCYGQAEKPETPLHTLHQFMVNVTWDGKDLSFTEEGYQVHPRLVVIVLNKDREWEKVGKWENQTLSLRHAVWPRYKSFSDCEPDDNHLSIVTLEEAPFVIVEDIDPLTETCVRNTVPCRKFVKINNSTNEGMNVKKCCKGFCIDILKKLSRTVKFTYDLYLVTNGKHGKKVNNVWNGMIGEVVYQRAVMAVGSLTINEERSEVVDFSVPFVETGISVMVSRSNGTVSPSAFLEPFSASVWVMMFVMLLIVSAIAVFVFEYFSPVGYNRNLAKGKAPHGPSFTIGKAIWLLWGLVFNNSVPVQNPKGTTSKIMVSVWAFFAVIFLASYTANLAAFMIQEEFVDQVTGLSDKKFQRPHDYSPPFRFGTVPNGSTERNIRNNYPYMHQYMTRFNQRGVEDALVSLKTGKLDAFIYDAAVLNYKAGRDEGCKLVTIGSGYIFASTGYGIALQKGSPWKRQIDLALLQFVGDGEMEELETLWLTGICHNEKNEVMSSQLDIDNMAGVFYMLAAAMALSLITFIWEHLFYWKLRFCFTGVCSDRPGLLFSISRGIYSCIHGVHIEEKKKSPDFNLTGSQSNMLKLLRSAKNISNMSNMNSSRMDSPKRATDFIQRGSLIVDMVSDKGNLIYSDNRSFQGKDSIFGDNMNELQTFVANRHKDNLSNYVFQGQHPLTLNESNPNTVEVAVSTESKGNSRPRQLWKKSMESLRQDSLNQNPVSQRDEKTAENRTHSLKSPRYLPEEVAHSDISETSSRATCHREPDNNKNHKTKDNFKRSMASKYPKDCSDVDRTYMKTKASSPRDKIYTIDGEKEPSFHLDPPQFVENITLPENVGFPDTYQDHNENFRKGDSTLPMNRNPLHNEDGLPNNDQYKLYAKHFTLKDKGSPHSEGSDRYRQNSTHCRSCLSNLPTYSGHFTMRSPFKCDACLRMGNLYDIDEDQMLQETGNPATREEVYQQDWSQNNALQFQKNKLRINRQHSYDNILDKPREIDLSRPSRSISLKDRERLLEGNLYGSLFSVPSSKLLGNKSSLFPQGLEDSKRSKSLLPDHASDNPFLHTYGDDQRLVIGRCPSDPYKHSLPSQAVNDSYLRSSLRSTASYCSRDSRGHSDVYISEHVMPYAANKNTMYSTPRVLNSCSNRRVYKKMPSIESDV
Sequence of presynaptic NMDARs of spinal lamina II neurons (Q00960 27-1482, other chains not shown): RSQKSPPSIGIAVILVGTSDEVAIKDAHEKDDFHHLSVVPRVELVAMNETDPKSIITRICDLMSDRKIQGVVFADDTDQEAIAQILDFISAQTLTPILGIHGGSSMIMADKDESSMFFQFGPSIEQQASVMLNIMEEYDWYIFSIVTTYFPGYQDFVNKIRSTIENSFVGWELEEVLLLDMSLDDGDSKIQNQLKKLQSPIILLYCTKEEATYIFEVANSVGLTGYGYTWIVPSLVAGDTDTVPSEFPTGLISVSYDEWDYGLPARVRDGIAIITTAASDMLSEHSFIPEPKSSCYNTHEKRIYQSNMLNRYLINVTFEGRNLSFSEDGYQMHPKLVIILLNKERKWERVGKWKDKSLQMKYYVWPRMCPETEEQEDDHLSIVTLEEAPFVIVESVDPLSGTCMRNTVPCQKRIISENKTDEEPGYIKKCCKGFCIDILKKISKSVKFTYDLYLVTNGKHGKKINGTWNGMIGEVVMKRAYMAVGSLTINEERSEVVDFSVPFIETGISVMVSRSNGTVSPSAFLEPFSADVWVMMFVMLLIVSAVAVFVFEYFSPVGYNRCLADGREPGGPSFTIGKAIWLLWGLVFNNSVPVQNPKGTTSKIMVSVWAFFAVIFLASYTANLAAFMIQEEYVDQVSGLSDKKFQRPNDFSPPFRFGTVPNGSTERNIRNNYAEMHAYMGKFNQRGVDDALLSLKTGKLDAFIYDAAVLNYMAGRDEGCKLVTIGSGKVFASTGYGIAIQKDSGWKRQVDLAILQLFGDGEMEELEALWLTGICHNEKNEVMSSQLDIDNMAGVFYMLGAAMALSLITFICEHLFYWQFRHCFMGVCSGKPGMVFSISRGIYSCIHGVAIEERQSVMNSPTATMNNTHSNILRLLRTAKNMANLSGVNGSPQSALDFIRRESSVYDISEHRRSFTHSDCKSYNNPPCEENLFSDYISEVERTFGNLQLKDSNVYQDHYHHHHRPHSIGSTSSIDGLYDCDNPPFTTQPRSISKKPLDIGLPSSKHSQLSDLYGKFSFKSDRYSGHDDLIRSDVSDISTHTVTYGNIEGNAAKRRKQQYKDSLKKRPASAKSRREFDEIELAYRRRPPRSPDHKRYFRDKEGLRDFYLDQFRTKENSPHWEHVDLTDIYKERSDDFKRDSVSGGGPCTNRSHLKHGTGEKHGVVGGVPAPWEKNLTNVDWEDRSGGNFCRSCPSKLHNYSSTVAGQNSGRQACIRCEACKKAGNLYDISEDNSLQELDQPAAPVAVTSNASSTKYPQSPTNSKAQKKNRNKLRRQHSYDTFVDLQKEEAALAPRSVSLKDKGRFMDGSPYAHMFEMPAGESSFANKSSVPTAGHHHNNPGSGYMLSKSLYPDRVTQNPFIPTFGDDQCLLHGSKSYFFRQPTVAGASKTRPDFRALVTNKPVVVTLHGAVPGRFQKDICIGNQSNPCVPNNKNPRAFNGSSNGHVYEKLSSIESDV
T1 sequence (Q00959 23-1464, other chains not shown): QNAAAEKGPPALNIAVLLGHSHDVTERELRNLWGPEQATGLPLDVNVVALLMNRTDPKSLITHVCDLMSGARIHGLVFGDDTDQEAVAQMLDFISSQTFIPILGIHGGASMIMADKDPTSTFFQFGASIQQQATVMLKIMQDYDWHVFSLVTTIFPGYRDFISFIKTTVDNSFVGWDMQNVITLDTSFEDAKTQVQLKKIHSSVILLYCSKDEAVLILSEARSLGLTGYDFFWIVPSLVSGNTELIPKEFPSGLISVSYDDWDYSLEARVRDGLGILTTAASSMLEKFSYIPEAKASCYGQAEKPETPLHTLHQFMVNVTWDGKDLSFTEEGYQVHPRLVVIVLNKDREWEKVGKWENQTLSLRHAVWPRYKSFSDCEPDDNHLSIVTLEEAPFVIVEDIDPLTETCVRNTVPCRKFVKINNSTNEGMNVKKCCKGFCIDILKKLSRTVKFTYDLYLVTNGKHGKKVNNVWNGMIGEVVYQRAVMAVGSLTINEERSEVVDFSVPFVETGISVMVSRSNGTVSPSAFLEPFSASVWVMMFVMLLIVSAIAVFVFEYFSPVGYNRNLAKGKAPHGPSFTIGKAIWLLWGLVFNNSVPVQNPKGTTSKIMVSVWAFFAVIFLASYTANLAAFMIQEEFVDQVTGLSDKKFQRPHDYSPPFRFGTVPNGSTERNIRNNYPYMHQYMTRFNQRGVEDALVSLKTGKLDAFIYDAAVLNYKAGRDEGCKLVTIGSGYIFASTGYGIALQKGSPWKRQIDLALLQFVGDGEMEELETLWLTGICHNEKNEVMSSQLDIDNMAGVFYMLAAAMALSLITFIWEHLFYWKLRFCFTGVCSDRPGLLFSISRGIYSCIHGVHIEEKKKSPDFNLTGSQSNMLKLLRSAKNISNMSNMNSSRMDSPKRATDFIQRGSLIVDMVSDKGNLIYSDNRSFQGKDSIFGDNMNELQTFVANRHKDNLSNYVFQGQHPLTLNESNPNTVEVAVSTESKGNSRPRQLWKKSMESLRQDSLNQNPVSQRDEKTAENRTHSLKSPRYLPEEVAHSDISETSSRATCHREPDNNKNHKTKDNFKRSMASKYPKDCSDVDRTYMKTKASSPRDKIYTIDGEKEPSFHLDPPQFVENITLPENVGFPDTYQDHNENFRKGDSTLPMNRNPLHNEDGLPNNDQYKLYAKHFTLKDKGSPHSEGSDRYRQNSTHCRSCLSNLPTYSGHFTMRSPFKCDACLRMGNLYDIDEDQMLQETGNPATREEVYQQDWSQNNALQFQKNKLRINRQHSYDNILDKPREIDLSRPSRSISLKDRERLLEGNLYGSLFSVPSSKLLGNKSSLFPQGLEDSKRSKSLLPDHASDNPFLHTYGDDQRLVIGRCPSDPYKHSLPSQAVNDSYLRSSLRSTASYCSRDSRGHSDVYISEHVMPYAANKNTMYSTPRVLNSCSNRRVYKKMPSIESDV

`NCC1(CC(=O)O)CCCCC1` [gabapentin]: in test [1], the “surface protein levels of GluN1, GluN2A and GluN2B increased by α2δ-1 coexpression” value is “normalized; also recorded: reversed”. In addition, the “α2δ-1 co-expression-induced increase in the NMDAR current density” value in test [2] (HEK293) was “completely reversed”. For the same molecule, the “NMDAR currents in cells expressing GluN1/GluN2A or GluN1/GluN2B alone” value in test [2] (HEK293 without α2δ-1) is given as “had no effect”. The “α2δ-1-reduced voltage-dependent Mg2+ block of GluN1/GluN2A NMDARs” value in test [2] (at −40 and −60 mV) is recorded as “reversed this effect”.
With “YGRKKRRQRRRVSGLNPSLWSIFGLQFILLWLVSGSRHYLW (a2d1 peptide) [α2δ-1Tat peptide]”, the “direct interaction between α2δ-1 and GluN1” value with α2δ-1-GluN1 interaction is “disrupted”. The “frequency of mEPSCs in dorsal horn neurons” value in test [3] (peptide 1 μM for 60 min) is “significantly reduced”. Also, the “amplitude of monosynaptic evoked EPSCs” value in test [3] (peptides 1 μM for 60 min) is listed as “normalized”. The “pain hypersensitivity induced by Cacna2d1 overexpression (tactile and pressure withdrawal thresholds)” value in test [4] is reported as “attenuates”. Moreover, the “pain hypersensitivity induced by Cacna2d1 overexpression (tactile and pressure withdrawal thresholds)” value in test [4] (listed as a2d-1Tat peptide) is reported as “similarly reversed”. Moreover, the “withdrawal thresholds in rats treated with the control vector” value in test [4] (control vector rats, intrathecal injection) is listed as “had no effect”. Besides, in test [5] (SHRs), the “puff NMDA currents of labelled PVN neurons” value is reported as “restored” and the “ratio of NMDAR-EPSCs to AMPAR-EPSCs” value is on record as “normalized”. Also, the “baseline frequency of mEPSCs of labelled PVN neurons” value in test [5] (SHRs, AP5 50 μmol L-1, gabapentin 100 μmol L-1, peptides 1 μmol L-1, 60 min) is given as “completely normalized”. Also, the “amplitude of evoked NMDAR-EPSCs of labelled PVN neurons” value in test [5] (SHRs, gabapentin 100 μmol L-1, peptides 1 μmol L-1, 60 min) is “fully normalized”. In addition, in test [5] (WKY rats), the “amplitude of puff NMDA currents” value is “had no effect”, the “frequency or amplitude of mEPSCs of labelled PVN neurons” value was “had no effect” and the “ratio of NMDAR-EPSCs to AMPAR-EPSCs” value was “had no effect”. In test [5] (WKY rats or SHRs), the “amplitude of evoked AMPAR-EPSCs of labelled PVN neurons” value is given as “had no effect”. Moreover, the “amplitude of evoked NMDAR-EPSCs of labelled PVN neurons” value in test [5] (WKY rats, gabapentin 100 μmol L-1, peptides 1 μmol L-1, 60 min) is “had no effect”. Moreover, in test [6] (paclitaxel-treated rats), the “reduced PPR of evoked EPSCs” value is recorded as “fully reversed”. In test [6] (setting [7]), the “increased amplitude of evoked monosynaptic EPSCs” value is recorded as “completely reversed” and the “increased frequency of mEPSCs of lamina II neurons” value is on record as “completely normalized”. The “PPR of evoked EPSCs” value in test [6] (vehicle-treated rats) is “had no effect”. For the same molecule, in test [6] (setting [8]), the “amplitude of evoked monosynaptic EPSCs” value is on record as “did not affect” and the “frequency of mEPSCs of lamina II neurons” value is “neither incubation with α2δ-1Tat peptide nor bath application of AP5 had any effect”.
